# Laboratory results published in publication PMC2916701 (Molecular cell, 2010).
# Several values for one entry are separate records, joined by “and”; a condition that tells them apart may be missing. Identical values can stand only once.
# B1: His6-Cdc15(F-BAR) (amino acids 19-295) (domain or fragment, S. pombe, UniProt Q09822 19-295, looked up)
# chain: SVKFRDNFWGSEDAGMDALMSRTKSSLSVLESIDEFYAKRASIEREYASKLQELAASSADIPEVGSTLNNILSMRTETGSMAKAHEEVSQQINTELRNKIREYIDQTEQQKVVAANAIEELYQKKTALEIDLSEKKDAYEYSCNKLNSYMRQTKKMTGRELDKYNLKIRQAALAVKKMDAEYRETNELLLTVTREWIDRWTEVCDAFQHIEEYRLEFLKTNMWAYANIISTACVKDDESCEKIRLTLENTNIDEDITQMIQNEGTGTTIPPLPEFND
# B2: hyperphosphorylated Cdc15-TAP (natural protein, S. pombe, UniProt Q09822 1-927, looked up)
# chain: MEVNGVSQSEAAPYVTKSSVKFRDNFWGSEDAGMDALMSRTKSSLSVLESIDEFYAKRASIEREYASKLQELAASSADIPEVGSTLNNILSMRTETGSMAKAHEEVSQQINTELRNKIREYIDQTEQQKVVAANAIEELYQKKTALEIDLSEKKDAYEYSCNKLNSYMRQTKKMTGRELDKYNLKIRQAALAVKKMDAEYRETNELLLTVTREWIDRWTEVCDAFQHIEEYRLEFLKTNMWAYANIISTACVKDDESCEKIRLTLENTNIDEDITQMIQNEGTGTTIPPLPEFNDYFKENGLNYDIDQLISKAPSYPYSSSRPSASASLASSPTRSAFRPKTSETVSSEVVSSPPTSPLHSPVKPVSNEQVEQVTEVELSIPVPSIQEAESQKPVLTGSSMRRPSVTSPTFEVAARPLTSMDVRSSHNAETEVQAIPAATDISPEVKEGKNSENAITKDNDDIILSSQLQPTATGSRSSRLSFSRHGHGSQTSLGSIKRKSIMERMGRPTSPFMGSSFSNMGSRSTSPTKEGFASNQHATGASVQSDELEDIDPRANVVLNVGPNMLSVGEAPVESTSKEEDKDVPDPIANAMAELSSSMRRRQSTSVDDEAPVSLSKTSSSTRLNGLGYHSRNTSIASDIDGVPKKSTLGAPPAAHTSAQMQRMSNSFASQTKQVFGEQRTENSARESLRHSRSNMSRSPSPMLSRRSSTLRPSFERSASSLSVRQSDVVSPAPSTRARGQSVSGQQRPSSSMSLYGEYNKSQPQLSMQRSVSPNPLGPNRRSSSVLQSQKSTSSNTSNRNNGGYSGSRPSSEMGHRYGSMSGRSMRQVSQRSTSRARSPEPTNRNSVQSKNVDPRATFTAEGEPILGYVIALYDYQAQIPEEISFQKGDTLMVLRTQEDGWWDGEIINVPNSKRGLFPSNFVQTV
# modifications: hyperphosphorylated at many sites (sites not given; Supp. Table 1)
# What was measured:
# [1] = target: the molecule itself; assay: negative stain electron microscopy
# AUC = target: the molecule itself; assay: AUC
Protein,binding result [1],stoichiometry N (AUC)
B1,binds,
B2,,2 and 4
